Target: T1, GST-Nup88 (human, UniProt Q99567 1-741)
T1 sequence (looked up): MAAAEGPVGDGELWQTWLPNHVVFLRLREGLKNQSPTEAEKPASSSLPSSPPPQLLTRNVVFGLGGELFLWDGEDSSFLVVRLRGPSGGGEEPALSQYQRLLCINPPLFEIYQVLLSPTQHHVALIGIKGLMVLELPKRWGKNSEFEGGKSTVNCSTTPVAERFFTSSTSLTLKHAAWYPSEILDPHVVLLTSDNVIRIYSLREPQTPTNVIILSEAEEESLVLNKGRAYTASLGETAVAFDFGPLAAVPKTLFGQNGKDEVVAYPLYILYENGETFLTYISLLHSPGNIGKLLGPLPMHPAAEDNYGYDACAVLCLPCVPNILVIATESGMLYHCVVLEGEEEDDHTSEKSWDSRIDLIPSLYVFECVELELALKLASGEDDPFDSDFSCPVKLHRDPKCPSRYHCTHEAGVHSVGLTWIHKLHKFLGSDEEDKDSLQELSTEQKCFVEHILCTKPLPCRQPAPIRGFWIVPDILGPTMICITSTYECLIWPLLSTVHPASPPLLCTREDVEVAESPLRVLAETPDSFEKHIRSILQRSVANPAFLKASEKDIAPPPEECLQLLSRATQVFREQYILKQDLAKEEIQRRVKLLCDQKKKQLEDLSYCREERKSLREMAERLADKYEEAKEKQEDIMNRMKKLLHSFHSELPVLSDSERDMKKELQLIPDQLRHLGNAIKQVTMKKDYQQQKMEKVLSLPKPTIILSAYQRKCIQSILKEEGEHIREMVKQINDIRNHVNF
Assay: far-Western, overlay or dot blot

B1: lamin A tail (residues 243-664), bacterially expressed and purified (domain or fragment, human, UniProt P02545 243-664, looked up)
chain: DALQELRAQHEDQVEQYKKELEKTYSAKLDNARQSAERNSNLVGAAHEELQQSRIRIDSLSAQLSQLQKQLAAKEAKLRDLEDSLARERDTSRRLLAEKEREMAEMRARMQQQLDEYQELLDIKLALDMEIHAYRKLLEGEEERLRLSPSPTSQRSRGRASSHSSQTQGGGSVTKKRKLESTESRSSFSQHARTSGRVAVEEVDEEGKFVRLRNKSNEDQSMGNWQIKRQNGDDPLLTYRFPPKFTLKAGQVVTIWAAGAGATHSPPTDLVWKAQNTWGCGNSLRTALINSTGEEVAMRKLVRSVTVVEDDEDEDGDDLLHHHHGSHCSSSGDPAEYNLRSRTVLCGTCGQPADKASASGSGAQVGGPISSGSSASSVTVTRSYRSVGGSGGGSFGDNLVTRSYLLGNSSPRTQSPQNCSIM
- binding result: binds

— article PMC3069011 (Molecular Biology of the Cell, 2011)
